One substance from PMC6126627 can be followed below.

Broadly, the Kd is a measure of binding affinity in units of concentration. Higher therefore signals a looser complex.

Assay in all cases: ELISA
Assay [1] concerns the target murine sarcoma laminin (mouse) (UniProt P19137).
The target in assay [2] is human plasma fibronectin (human).
In assay [3] the target is human plasma vitronectin (human).

“full-length recombinant P4 (rP4^G22-K274), Haemophilus lipoprotein e (from UniProt P26093 22-274) (natural protein)”: the Kd in assay [1] worked out at 0.00926 µM; in assay [2] it was 0.0102 µM; in assay [3] it was 0.0165 µM.
